We go through two molecules from patent US20240382561A1, “GLUCOREGULATORY COMPOUND, COMPOSITION AND USES THEREOF” (THE HONG KONG POLYTECHNIC UNIVERSITY, priority 2021, published 2024).

Assay [1] concerns db/db mice. The assay is described as follows: Acute glucose tolerance test after i.p. injection of human CYSTM1 in db/db mice. Type of assay: in vivo, mouse. The settings on record: acute i.p. injection 1 mg/kg BW, vs PBS.
Assay [2] concerns high fat diet-induced obese (HFD) mice. The assay is described as follows: Chronic daily oral gavage of CYSTM1 in high-fat diet-induced obese mice. Type of assay: in vivo, mouse. The method, then: In this example, 8-week-old male C57BL/6J mice fed with a high-fat diet (HFD) were treated daily with an oral gavage of recombinant CYSTM1 protein (1 mg/kg), and the control group of mice were gavaged with saline daily. CYSTM1 treatment was carried out after 8 weeks of HFD feeding (FIG. 4A).

Assay [3] concerns B-TC-6 cells. The assay is described as follows: Insulin secretion from B-TC-6 cells at low and high glucose. Type of assay: cell-based. Conditions: CYSTM1 1-1000 nM, 5.6 mM or 16.7 mM glucose, 45 min. On the procedure:
(§1) FIGS. 6A-6C show the change in insulin secretion from different pancreatic cells in a low (5.6 mM) and high (16.7 mM) glucose level treated by different concentrations of CYSTM1: FIG. 6A: MIN6 cells; FIG. 6B: β-TC-6 cells; FIG. 6C: mouse-isolated pancreatic islets (n=5-6 per cell type);
(§2) In this example, in vitro assays of insulin secretion in response to CYSTM1 treatment in low and high-glucose environments on the pancreatic cell lines (MIN6 and B-TC-6) and mouse isolated pancreatic islets were performed. Mouse insulinoma, MIN6 cells, were cultured in DMEM (Gibco) supplemented with 10% (v/v) FBS (Lonza), 100 U/mL penicillin and […], and 70 μM freshly added β-mercaptoethanol (Gibco) (37° C., 5% CO2). B-TC-6 cells were grown in RPMI 1640 medium (Gibco) containing 5.5 mM glucose and supplemented with 10% (v/v) FBS, 100 U/mL penicillin and […], and 2 mM L-glutamine. […] Following 45 min incubation of KRB solution, each well was removed and the insulin content of each sample was determined by a mouse insulin ELISA kit. The efficacy of CYSTM1 to stimulate insulin secretion was evaluated in each of the pancreatic cell lines: MIN6 cells (FIG. 6A), B-TC-6 cells (FIG. 6B), and isolated pancreatic islet cells (FIG. 6C).

Assay [4] has as its system mouse primary adipocytes. The assay is described as follows: 2-NBDG glucose uptake in mouse primary adipocytes. Type of assay: cell-based. The settings on record: mouse primary adipocytes, CYSTM1 1-1000 nM, 1 h. The method, then:
(§3) To determine whether CYSTM1 can increase glucose uptake in adipocytes, in vitro assays of 2-NBDG uptake in response to CYSTM1 treatment and potential inhibitors in 3T3-L1 adipocytes and mouse primary adipocytes were performed. 3T3-L1 preadipocytes were maintained in Dulbecco's modified Eagle's medium (DMEM) supplemented with 10% fetal bovine serum. Two days after confluence, 3T3-L1 cells were induced to differentiation using the standard adipogenic cocktail (0.5 mM IBMX, 1 μM dexamethasone and 10 μg/ml insulin) that was applied for 4 days and followed by 10 μg/ml insulin treatment for additional 4 days. The culture medium was changed every other day. The differentiated cells were maintained in normal serum containing DMEM. Mouse primary adipocytes were isolated from 10 to 12-week-old male C57BL/6J mice using a collagenase digestion protocol as described, briefly, white fat pads were removed, minced and digested using collagenase for 60-90 min at 37° C. in Krebs-Ringers phosphate HEPES buffer (KRPH) (15 mM HEPES, pH 7.4, 118 mM NaCl, 4.8 mM KCl, 1.2 mM MgSO4, 1.3 mM CaCl2, 1.2 mM KHPO3, 0.1% BSA). The stromal vascular fraction was separated from the adipocytes and cultured using DMEM and differentiated the same as 3T3-L1 adipocytes as described above. […] NBDG uptake was measured using a fluorescent microplate reader (Thermo Scientific Varioskan LUX Multimode Microplate Reader).

Assay [5] relates to STZ-induced diabetic male mice. The assay is described as follows: Daily oral CYSTM1 in STZ-induced diabetic mice. Type of assay: in vivo, mouse. Conditions: vs saline. The method, then: Turning to FIG. 7J, standard chow diet (STC) mice were injected with streptozotocin (STZ) to induce diabetes for five days and then treated with either CYSTM1 protein (1 mg/kg) or saline daily. The group of mice treated with saline were regarded as the control group.

Assay [6] has as its system MIN6 cells. The assay is described as follows: Insulin secretion from MIN6 cells at low and high glucose. Type of assay: cell-based, mouse. Conditions: CYSTM1 1-1000 nM, 5.6 mM or 16.7 mM glucose, 45 min. The method, then:
as §1, §2

In assay [7] the test system is 3T3-L1 adipocytes. The assay is described as follows: 2-NBDG glucose uptake in 3T3-L1 adipocytes. Type of assay: cell-based. The settings on record: 3T3-L1 adipocytes, CYSTM1 1-1000 nM, 1 h. The method, then:
as §3

Assay [8] concerns isolated pancreatic islet cells. The assay is described as follows: Insulin secretion from mouse isolated pancreatic islets. Type of assay: cell-based. The settings on record: CYSTM1 1-1000 nM, 5.6 mM then 16.7 mM glucose, 45 min. The method, then:
as §1, §2

Assay [9] deals with diet-induced obesity and diabetes mouse model. The assay is described as follows: Acute glucose tolerance test after i.p. injection or oral gavage of recombinant CYSTM1 in high-fat diet mice. Type of assay: in vivo. The settings on record: 1 h before GTT, obese mice, vs PBS. The method, then:
In this example, an acute intraperitoneal (i.p.) glucose tolerance test (GTT) was performed using different administration methods of delivering recombinant CYSTM1 proteins. 8-week-old male C57BL/6J mice fed a high-fat diet for 12 weeks (diet-induced obesity and diabetes mouse model) were treated with different concentrations of CYSTM1 through i.p. injection (FIG. 3A-3C) or oral administration (FIGS. 3D-3F) for 1 h following a GTT by intraperitoneal injections of […]. Circulating CYSTM1 and insulin levels were determined by enzyme-linked immunosorbent assay (ELISA) (ImmunoDiagnostics, Hong Kong), and the glucose level was determined by a glucometer (Roche Diabetes Care, Indianapolis, IN, USA). […] As human and mouse CYSTM1 share high identity (89.4%) and similarity (90.4%), and human CYSTM1 appears to also lower circulating glucose in the db/db mice (a genetic mouse model of obesity and diabetes), it could be expected that human CYSTM1 may also function similarly with respect to human circulating glucose in an obese, diabetic human subject.

Assay [10] relates to MIN6 pancreatic beta cell. The assay is described as follows: Insulin secretion in MIN6 cells with GLP-1R antagonist exendin (9-39). Conditions: CYSTM1 10 nM, exendin (9-39) 10 nM. Type of assay: cell-based, mouse.
The mark [11] stands for this setting: i.p. injection of CYSTM1 (0.5 and 1 mg/kg BW).
Where [12] appears, read: oral gavage of CYSTM1 1 mg/kg BW.

B1: cysteine rich transmembrane module containing 1 (protein, UniProt Q9H1C7 1-97, looked up)
Cysteine-rich and …: MNQENPPPYPGPGPTAPYPPYPPQPMGPGPMGGPYPPPQGYPYQGYPQYGWQGGPQEPPKTTVYVVEDQRRDELGPSTCLTACWTALCCCCLWDMLT
notes: human CYSTM1, 97 amino acid long peptide
Regarding B1, the “glucose levels (GTT)” value in assay [1] was “lower glucose levels”.

B2: cysteine rich transmembrane module containing 1 (protein, UniProt Q8K353 1-104, looked up)
Cysteine-rich and …: MNPENPPPYPGPGPTAPYPPYPQQPMGPMGPMGAPPPQGYPYPPPQGYPYQGYPQYGWQGGPQEPPKTTVYVVEDQRRDDLGPSTCLTACWTALCCCCLWDMLT
notes: recombinant mouse CYSTM1 protein, 104 amino acid long glucoregulatory peptide
As to B2, the “feeding blood glucose level” value is “significantly reduced feeding blood glucose level” in [2] (1 mg/kg oral gavage once daily, HFD mice, vs saline) and “significantly lower feeding blood glucose level” in assay [5] (1 mg/kg oral daily). Besides, the fasting insulin concentration result in assay [2] (day 10, 1 mg/kg oral gavage once daily, HFD mice, vs saline) is “decreased level of fasting insulin concentration”. In addition, the “glucose homeostasis by IPGTT” value in [2] (day 20, 1 mg/kg oral gavage once daily, vs control HFD-fed mice) is recorded as “better glucose homeostasis”. Further, the insulin secretion result in [3], in [6] and in assay [8] was “concentration-dependent increase in insulin secretion” in each case. Also, the “glucose (2-NBDG) uptake” value in assay [4] and in [7] was “concentration-dependent increase” in each case. For the same molecule, in assay [5] (day 15, 1 mg/kg oral daily), the “glucose regulation by IPGTT” value is “protects from STZ-induced glucose dysregulation”. The circulating insulin entry in assay [9] (setting [11]) and in assay [9] (setting [12]) was “increase circulating insulin” each time. The “glucose levels (GTT)” value in assay [9] (setting [11]) and in assay [9] (setting [12]) was “lower glucose levels” throughout. Further, the “insulin secretion induced by CYSTM1 in presence of exendin (9-39)” value in assay [10] is on record as “not affected by the presence of exendin (9-39)”.
